To fix the notation:
B1: Formin-binding protein 4, residues 200 to 261; numbered along this chain, Q8N3X1 (parent)
chain: SGWQYDTQCSLAGVGIEMGDWQEVWDENTGCYYYWNTQTNEVTWELPQYLATQVQGLQHYQP

43 variants from the Human Domainome abundance scans (Beltran et al. 2025) can be followed below.

± gives the uncertainty stated by the source.

The series covers variants of B1. The experiment in a line: abundance fitness (aPCA) (normalised: wild type 0, dead -1); higher = more abundant; growth selection in yeast, the domain comes from the species named. The settings on record: Homo sapiens.
For the variant SGWQYDTQCSLAGVGIEMGDWQVVWDENTGCYYYWNTQTNEVTWELPQYLATQVQGLQHYQP, the abundance fitness is -1.07 ± 0.17. The same measure for SGWQYDTQCSLAGVGIEMGDWQSVWDENTGCYYYWNTQTNEVTWELPQYLATQVQGLQHYQP: -0.682 ± 0.094.

In the case of SGWQYDTQCSLAGVGIEMGDWQYVWDENTGCYYYWNTQTNEVTWELPQYLATQVQGLQHYQP, the abundance fitness was -0.58 ± 0.21. The same measure for SGWQYDTQCSLAGVGIEMGDWQFVWDENTGCYYYWNTQTNEVTWELPQYLATQVQGLQHYQP: -0.511 ± 0.15; for SGWQYDTQCSLAGVGIEMGDWQCVWDENTGCYYYWNTQTNEVTWELPQYLATQVQGLQHYQP: -0.862 ± 0.18. On to SGWQYDTQCSLAGVGIEMGDWQWVWDENTGCYYYWNTQTNEVTWELPQYLATQVQGLQHYQP, for which the abundance fitness is -1.06 ± 0.28.

Turning to SGWQYDTQCSLAGVGIEMGDWQIVWDENTGCYYYWNTQTNEVTWELPQYLATQVQGLQHYQP, the abundance fitness was -0.759 ± 0.22.

For SGWQYDTQCSLAGVGIEMGDWAEVWDENTGCYYYWNTQTNEVTWELPQYLATQVQGLQHYQP, the abundance fitness was -0.121 ± 0.086. Regarding SGWQYDTQCSLAGVGIEMGDWCEVWDENTGCYYYWNTQTNEVTWELPQYLATQVQGLQHYQP, the abundance fitness is -0.459 ± 0.13.

With SGWQYDTQCSLAGVGIEMGDWLEVWDENTGCYYYWNTQTNEVTWELPQYLATQVQGLQHYQP, the abundance fitness is -0.315 ± 0.072. For the variant SGWQYDTQCSLAGVGIEMGDWSEVWDENTGCYYYWNTQTNEVTWELPQYLATQVQGLQHYQP, the abundance fitness was -0.136 ± 0.072. The same measure for SGWQYDTQCSLAGVGIEMGDWDEVWDENTGCYYYWNTQTNEVTWELPQYLATQVQGLQHYQP: -0.371 ± 0.16. The same measure for SGWQYDTQCSLAGVGIEMGDWFEVWDENTGCYYYWNTQTNEVTWELPQYLATQVQGLQHYQP: -0.423 ± 0.13; for SGWQYDTQCSLAGVGIEMGDWTEVWDENTGCYYYWNTQTNEVTWELPQYLATQVQGLQHYQP: -0.137 ± 0.09. The same measure for SGWQYDTQCSLAGVGIEMGDWREVWDENTGCYYYWNTQTNEVTWELPQYLATQVQGLQHYQP: 0.006 ± 0.072; for SGWQYDTQCSLAGVGIEMGDWEEVWDENTGCYYYWNTQTNEVTWELPQYLATQVQGLQHYQP: 0.042 ± 0.19; for SGWQYDTQCSLAGVGIEMGDWNEVWDENTGCYYYWNTQTNEVTWELPQYLATQVQGLQHYQP: -0.023 ± 0.17. Consider SGWQYDTQCSLAGVGIEMGDWMEVWDENTGCYYYWNTQTNEVTWELPQYLATQVQGLQHYQP, for which the abundance fitness was -0.217 ± 0.1. Then SGWQYDTQCSLAGVGIEMGDWYEVWDENTGCYYYWNTQTNEVTWELPQYLATQVQGLQHYQP, with -0.586 ± 0.26; and SGWQYDTQCSLAGVGIEMGDWWEVWDENTGCYYYWNTQTNEVTWELPQYLATQVQGLQHYQP, with -0.61 ± 0.15. Regarding SGWQYDTQCSLAGVGIEMGDWGEVWDENTGCYYYWNTQTNEVTWELPQYLATQVQGLQHYQP, the abundance fitness was -0.234 ± 0.15.

For SGWQYDTQCSLAGVGIEMGDWVEVWDENTGCYYYWNTQTNEVTWELPQYLATQVQGLQHYQP, the abundance fitness came to 0.063 ± 0.077. Then SGWQYDTQCSLAGVGIEMGDWHEVWDENTGCYYYWNTQTNEVTWELPQYLATQVQGLQHYQP, with -0.641 ± 0.21; and SGWQYDTQCSLAGVGIEMGDWPEVWDENTGCYYYWNTQTNEVTWELPQYLATQVQGLQHYQP, with -0.905 ± 0.14. Then SGWQYDTQCSLAGVGIEMGDDQEVWDENTGCYYYWNTQTNEVTWELPQYLATQVQGLQHYQP, with -0.716 ± 0.25; and SGWQYDTQCSLAGVGIEMGDRQEVWDENTGCYYYWNTQTNEVTWELPQYLATQVQGLQHYQP, with -0.811 ± 0.081. Then SGWQYDTQCSLAGVGIEMGDVQEVWDENTGCYYYWNTQTNEVTWELPQYLATQVQGLQHYQP, with -0.82 ± 0.1; and SGWQYDTQCSLAGVGIEMGDAQEVWDENTGCYYYWNTQTNEVTWELPQYLATQVQGLQHYQP, with -0.948 ± 0.15. Take SGWQYDTQCSLAGVGIEMGDHQEVWDENTGCYYYWNTQTNEVTWELPQYLATQVQGLQHYQP: the abundance fitness was -0.297 ± 0.29. On to SGWQYDTQCSLAGVGIEMGDIQEVWDENTGCYYYWNTQTNEVTWELPQYLATQVQGLQHYQP, for which the abundance fitness is -0.859 ± 0.22.

Consider SGWQYDTQCSLAGVGIEMGDMQEVWDENTGCYYYWNTQTNEVTWELPQYLATQVQGLQHYQP, for which the abundance fitness is -0.498 ± 0.1. The same measure for SGWQYDTQCSLAGVGIEMGDLQEVWDENTGCYYYWNTQTNEVTWELPQYLATQVQGLQHYQP: -0.847 ± 0.082.

For the variant SGWQYDTQCSLAGVGIEMGDTQEVWDENTGCYYYWNTQTNEVTWELPQYLATQVQGLQHYQP, the abundance fitness was -0.792 ± 0.16. Regarding SGWQYDTQCSLAGVGIEMGDFQEVWDENTGCYYYWNTQTNEVTWELPQYLATQVQGLQHYQP, the abundance fitness was -0.313 ± 0.11. Then SGWQYDTQCSLAGVGIEMGDYQEVWDENTGCYYYWNTQTNEVTWELPQYLATQVQGLQHYQP, with -0.066 ± 0.21. Then SGWQYDTQCSLAGVGIEMGDPQEVWDENTGCYYYWNTQTNEVTWELPQYLATQVQGLQHYQP, with -0.812 ± 0.17; and SGWQYDTQCSLAGVGIEMGDGQEVWDENTGCYYYWNTQTNEVTWELPQYLATQVQGLQHYQP, with -0.791 ± 0.093. The same measure for SGWQYDTQCSLAGVGIEMGDEQEVWDENTGCYYYWNTQTNEVTWELPQYLATQVQGLQHYQP: -1.03 ± 0.22; for SGWQYDTQCSLAGVGIEMGDKQEVWDENTGCYYYWNTQTNEVTWELPQYLATQVQGLQHYQP: -1.05 ± 0.26.

As to SGWQYDTQCSLAGVGIEMGDCQEVWDENTGCYYYWNTQTNEVTWELPQYLATQVQGLQHYQP, the abundance fitness is -0.804 ± 0.17.

For the variant SGWQYDTQCSLAGVGIEMGDNQEVWDENTGCYYYWNTQTNEVTWELPQYLATQVQGLQHYQP, the abundance fitness was -1.1 ± 0.3.

Regarding SGWQYDTQCSLAGVGIEMYDWQEVWDENTGCYYYWNTQTNEVTWELPQYLATQVQGLQHYQP, the abundance fitness is -0.96 ± 0.28. For the variant SGWQYDTQCSLAGVGIEMWDWQEVWDENTGCYYYWNTQTNEVTWELPQYLATQVQGLQHYQP, the abundance fitness was -0.992 ± 0.17.
